± gives the uncertainty stated by the source.

The nature of one data set: amyloid nucleation score (Sup35N fusion, yeast selection) (log enrichment); library NNK2; higher = more nucleation; inactive = no reads after selection. Put shortly: (§1)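 Sup35N was fused to peptides of 20 random codons and expressed in psi-negative yeast, which were induced with 100 μM copper sulfate for 24 hours and then grown on medium lacking adenine and uracil for 7 days at 30°C. Plasmid inserts from input and output were sequenced on Illumina. The nucleation score is the DiMSum log enrichment of output over input reads, centred on the mode score of non-aggregating sequences. Sequences with under 100 input reads were left out, and random libraries had three technical output replicates.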
In turn, YMVDIGSHYKVCVMFHWTFS showed an amyloid nucleation score of -0.88 ± 0.45.

As to YMVGVSITMCCRATLNFSSM, the amyloid nucleation score is 5.21 ± 0.06.

The substance YMYPWGP gave an amyloid nucleation score of 0.693 ± 0.28.

Take YNASVDVLHY: the amyloid nucleation score is -0.146 ± 1.

Regarding YNGTTLMMGDIGSCSFI, the amyloid nucleation score was -0.787 ± 0.38.

Turning to YNKLRPGATCHLETWS, the amyloid nucleation score was -0.614 ± 0.79.

The substance YNLCWCRVIDFCLCWYCILW showed an amyloid nucleation score of 4.94 ± 0.081.

YNLESLNFMLCSLRTQGKFR had an amyloid nucleation score of 0.149 ± 0.25.

In turn, YNLSSLLRCDLAAKTRTIFM showed an amyloid nucleation score of -0.575 ± 0.35.

YNMIYYQLNTMLVHDMIKYG: the amyloid nucleation score was 3.56 ± 0.073.

Take YNRRLYRIACVGIVNVNGVG: the amyloid nucleation score worked out at 5.902 ± 0.042.

YNSMSVSILNVYYDQPWSLS: the amyloid nucleation score was determined as 8.768 ± 0.049.

Turning to YNSRNIEDFFVIDLVNWLRL, the amyloid nucleation score was -1.24 ± 1.1.

As for YNTVVVPDVMTGRF, the amyloid nucleation score was -0.599 ± 1.

The substance YNVMDVMYYAQKWLLWWSKV yielded an amyloid nucleation score of -0.353 ± 0.41.

For the substance YPLGS, the amyloid nucleation score entry is “inactive”.

YPNTLFHWEAS came in with an amyloid nucleation score of 0.359 ± 0.29.

Consider YPSLNDACQP, for which the amyloid nucleation score was -0.394 ± 1.1.

Take YPWLRIWCDRNDIEVGLVFA: the amyloid nucleation score is -0.055 ± 0.79.

In the case of YQLRCKCSTF, the amyloid nucleation score is -0.757 ± 0.41.

With YQPRAYGKSPSIQFGQIVKQ, the amyloid nucleation score stood at 0.106 ± 0.31.

YQSDLTYLE came in with an amyloid nucleation score of -0.518 ± 0.35.

On to YQSFFVINLYNGLHTRGMRV, for which the amyloid nucleation score was found to be 7.701 ± 0.055.

Take YQSPCVTVVSGKRALPRGGR: the amyloid nucleation score was -0.001 ± 0.28.

Substance YQTWDSYVRSTCVYITCPWY showed an amyloid nucleation score of 7.133 ± 0.059.

Take YREHQKVRFSSLISSIGVLM: the amyloid nucleation score was -0.004 ± 0.49.

YRGYAPIYLHLRSSYVPVAL: the amyloid nucleation score is -0.319 ± 0.35.

Substance YRIQKHWCQLS gave an amyloid nucleation score of -0.087 ± 0.76.

In turn, YRLFSRWAVVRFMGVGSLSF registered an amyloid nucleation score of -0.691 ± 0.56.

The substance YRQRFVRKARSFYLWVMALP returned an amyloid nucleation score of -0.409 ± 0.45.

Take YRRLRTNLLWRQSRSY: the amyloid nucleation score stood at 0.817 ± 0.54.

The substance YRRRSKHAVNKGRMCA registered an amyloid nucleation score of 1.3 ± 0.28.

As to YRSSHYYQQSIIVFVIMHRC, the amyloid nucleation score came out at 2.11 ± 0.3.

YRVFMVPTWGGS gave an amyloid nucleation score of 0.381 ± 0.56.

The substance YSASKFTWPCIKTSKCGALC had an amyloid nucleation score of -1.09 ± 0.63.

Substance YSELMFTEVIYTVYYLTFLR came in with an amyloid nucleation score of -0.797 ± 0.76.

In turn, YSFELGDFRMEKLIRDMVKC had an amyloid nucleation score of -0.932 ± 0.42.

YSLRLDVYYRGWADYPGLWT displayed an amyloid nucleation score of 1.73 ± 0.18.

Take YSMICGLHCSVLFRGNSEGT: the amyloid nucleation score stood at 4.782 ± 0.039.

Regarding YSMIDTNQFF, the amyloid nucleation score entry is “inactive”.

YSMRWFVGGFILGYCVCGQV gave an amyloid nucleation score of 6.256 ± 0.037.

For YSRGMGVSNEMRDYFNKRDI, the amyloid nucleation score entry was “inactive”.

As to YSSPGSSPAFQRFGVVRRMN, the amyloid nucleation score entry was “inactive”.

Regarding YSTIKIHLPGLVVRNQSLVR, the amyloid nucleation score result was “inactive”.

The substance YSTYRASVGFARRGMPLPIL had an amyloid nucleation score of 0.015 ± 0.76.

In the case of YSWVEPRSRRAVEHDS, the amyloid nucleation score was determined as 0.551 ± 0.3.

Take YSYPRS: the amyloid nucleation score result is “inactive”.

For YTGIESE, the amyloid nucleation score is 0.768 ± 0.21.

YTHVNRWTCCSSIEICDWSY displayed an amyloid nucleation score of 6.957 ± 0.047.

Turning to YTIIKWPL, the amyloid nucleation score is -0.21 ± 0.79.

As to YTLFNDASRLFD, the amyloid nucleation score result was “inactive”.

YTLFPAVLECDQVLYVSVNF gave an amyloid nucleation score of 6.491 ± 0.037.

As to YTNSMTHAYTVLWRYMSPTN, the amyloid nucleation score was determined as 3.52 ± 0.084.

Consider YTRGTNGLWLYRWVMVRGSN, for which the amyloid nucleation score is -0.649 ± 0.36.

As for YTSGMFFMPMQALASETPHA, the amyloid nucleation score was -0.924 ± 0.61.

YTSSRGHYSIMGVIRMCDRL: the amyloid nucleation score is 0.118 ± 0.25.

Take YTVWGKY: the amyloid nucleation score is 0.288 ± 0.53.

As for YVANGPFCPDFLLLAGWYGV, the amyloid nucleation score was found to be 0.447 ± 0.53.

YVATMGKGLNYLSCLEDNAA had an amyloid nucleation score of 0.282 ± 0.56.

For the substance YVCVNWTFTFLFLCLVGRSL, the amyloid nucleation score came out at 0.36 ± 0.22.

YVDGFYNGERWRLVLHVWDL had an amyloid nucleation score of -0.598 ± 0.39.

In the case of YVLFFHGIMSCTPMQYQYMG, the amyloid nucleation score entry was “inactive”.

With YVLSYSCLDLYSIHL, the amyloid nucleation score is 5.64 ± 0.073.

YVNFD had an amyloid nucleation score of -0.299 ± 0.48.

YVPMQY gave an amyloid nucleation score of 0.382 ± 0.53.

Regarding YVPPQWRIVDRNVSY, the amyloid nucleation score amounted to 0.012 ± 1.

As to YVRAGRVNVILCVSENCIGG, the amyloid nucleation score was determined as 8.27 ± 0.049.

For YVRNFPLGLSV, the amyloid nucleation score was -1.63 ± 1.1.

YVSMLTNLTDLTSM had an amyloid nucleation score of 0.572 ± 0.33.

As to YVSNLEK, the amyloid nucleation score is -0.073 ± 1.

YVTCCSGVGVMLFRCANLNC showed an amyloid nucleation score of 5.37 ± 0.082.

Consider YVTFMKGIGLSVFSADIQ, for which the amyloid nucleation score is 1.83 ± 0.2.

As to YVVVINSEQNVETFKGFL, the amyloid nucleation score result is “inactive”.

Take YVWSAKHSNIDCRVES: the amyloid nucleation score stood at 0.877 ± 0.36.

In turn, YWLYMVAHAPKSFIE yielded an amyloid nucleation score of 0.509 ± 0.8.

Substance YWSMSVMVNMKFPCGNCWVR had an amyloid nucleation score of 2.24 ± 0.11.

YWYASSSSNIWYPEVCKCPV returned an amyloid nucleation score of -0.77 ± 0.79.

YYCTKASTLRSGGFRFMPMT had an amyloid nucleation score of 4.9 ± 0.051.

In turn, YYEMFCYSCPSDRPGISNDA yielded an amyloid nucleation score of 8.827 ± 0.035.

In the case of YYFWSTFGSYNYLIFCYSIL, the amyloid nucleation score was -0.656 ± 1.1.

YYGCCMVLTEPVG displayed an amyloid nucleation score of 6.29 ± 0.072.

As for YYGLVSGGLQYVCMFGSFIY, the amyloid nucleation score entry was “inactive”.

YYHIDYYRYWPALLGCFKYS gave an amyloid nucleation score of -0.898 ± 0.34.

YYMRRVSGLDISGRMCCKSV had an amyloid nucleation score of 0.106 ± 0.42.

On to YYPGL, for which the amyloid nucleation score is -1.45 ± 1.1.

For the substance YYQYGWEYARLWLIDNILHG, the amyloid nucleation score is -0.064 ± 1.1.

A short description of another data set: amyloid nucleation score (Sup35N fusion, yeast selection) (log enrichment); library NNK1; higher = more nucleation; inactive = no reads after selection. Put shortly:
as §1
With AAAFSSGGKLFHAGCWRRMM, the amyloid nucleation score is -0.681 ± 1.6.

The substance AACLCLYAFGRYVVTRCYGR came in with an amyloid nucleation score of -0.068 ± 0.69.

Take AAIAWVLN: the amyloid nucleation score is 0.112 ± 0.58.

The substance AALENAGWLMAMANKRPSKR showed an amyloid nucleation score of -0.614 ± 0.64.

In turn, AAMAYFWADRLKHGFYTW yielded an amyloid nucleation score of 4.74 ± 0.092.

As to AAMYSLICNPI, the amyloid nucleation score was 0.518 ± 0.3.

With AASRLVRDDWTLISGHPSKA, the amyloid nucleation score was determined as 0.844 ± 0.73.

As to ACELGFLPKHRHRGLVFVEG, the amyloid nucleation score was -0.725 ± 0.8.

ACHQGGMTSPNTRSTLFRVW had an amyloid nucleation score of 0.8 ± 0.51.

For the substance ACTYYIWVLSCAGPRAGGKE, the amyloid nucleation score worked out at 7.257 ± 0.048.

Turning to ACVLTAKMAARRIHMWQGLF, the amyloid nucleation score is -0.744 ± 0.84.

For the substance ACWFMCFYRFPAAWY, the amyloid nucleation score was 0.079 ± 0.3.

In the case of ADVATMSRGEKGASGGLK, the amyloid nucleation score is 0.508 ± 0.54.

The substance AEAISSYHGWSYYLHHTPFS showed an amyloid nucleation score of 0.654 ± 1.2.

In turn, AEGCRIPGRQSYRYGDICPR had an amyloid nucleation score of -0.373 ± 0.39.

AELILFIVLELMKRAFLSS registered an amyloid nucleation score of -0.795 ± 0.4.

Turning to AESSLLSLIVFNTNYFEAGQ, the amyloid nucleation score was found to be 6.753 ± 0.046.

As for AEWLWEVGGMGCQVKGEEAR, the amyloid nucleation score was -0.34 ± 0.36.

Substance AFLTQTSHSQTT had an amyloid nucleation score of 0.048 ± 0.74.

Regarding AFMYYMKPSMPIYELRILEG, the amyloid nucleation score entry is “inactive”.

AFRVS registered an amyloid nucleation score of -0.513 ± 0.63.

AFSTG: the amyloid nucleation score result is “inactive”.

Consider AFTFGYTFQFYLLASTYMIR, for which the amyloid nucleation score result was “inactive”.

AFVEVFHQGLLRSAMSQMVS: the amyloid nucleation score was -0.378 ± 0.74.

AFYLN came in with an amyloid nucleation score of -0.055 ± 0.34.

The substance AGFLS registered an amyloid nucleation score of -0.388 ± 0.62.

Turning to AGGAP, the amyloid nucleation score is 0.501 ± 0.89.

In the case of AGGLLYMLTHLNDVHSVKRY, the amyloid nucleation score worked out at 1.12 ± 0.93.

Consider AGGQGRLSRKVYSTMWVESL, for which the amyloid nucleation score came to 1.17 ± 0.21.

In turn, AGHLGWARFVYTLLSEDTVH yielded an amyloid nucleation score of 0.031 ± 0.79.

Take AGKGLAEARTYS: the amyloid nucleation score result is “inactive”.

Substance AGLKV gave an amyloid nucleation score of -0.479 ± 0.4.

For the substance AGNCRDW, the amyloid nucleation score is -0.857 ± 0.66.

Substance AGPDSSGAGGGSARFLFPEL displayed an amyloid nucleation score of 0.184 ± 1.2.

In turn, AGSGMLSKLVLLSRKSVSCN displayed an amyloid nucleation score of 1.02 ± 0.74.

AGVLAV displayed an amyloid nucleation score of -0.246 ± 0.46.

Substance AGWKTRHQGRVIVLGFWEGW had an amyloid nucleation score of 0.059 ± 0.41.

The substance AGWYINYTGKRDDARLLY returned an amyloid nucleation score of 0.187 ± 0.86.

Turning to AHKWCVVCQTV, the amyloid nucleation score is 0.338 ± 0.52.

Take AHPSNSYGRNNGVLASHRWD: the amyloid nucleation score is -0.847 ± 0.41.

AHTLSYVFWLYHMDQCVLFV came in with an amyloid nucleation score of -0.127 ± 1.4.

AIFGVTPKSVITTYNFTLHM showed an amyloid nucleation score of 6.01 ± 0.088.

The substance AILRHRSVNSGGELCGSKFP returned an amyloid nucleation score of 0.293 ± 1.

Take AIMCKYLRKLVLMFFSR: the amyloid nucleation score was determined as 0.811 ± 0.55.

AIRSFRARIGN displayed an amyloid nucleation score of 0.177 ± 1.2.

On to AKMIDR, for which the amyloid nucleation score was 0.399 ± 0.5.

For the substance ALDIFTNTKSVIGYVGIGKC, the amyloid nucleation score was 0.194 ± 0.52.

For ALDVWVLMKHSYGLSTVDAL, the amyloid nucleation score result was “inactive”.

The substance ALFVVCYRYFVESGTKWRRT showed an amyloid nucleation score of -0.009 ± 0.28.

With ALKGSRHDL, the amyloid nucleation score is -0.037 ± 0.73.

The substance ALKHPML gave an amyloid nucleation score of -0.815 ± 0.49.

In turn, ALKLARG showed an amyloid nucleation score of -0.019 ± 1.2.

As to ALLHVNLIVGNYTSGG, the amyloid nucleation score came to 3.28 ± 0.13.

Values taken from the supplement of paper PMC12042874.
